This test addresses CD99 antigen (Origene, Sku #TP304058) (UniProt P14209). The test can be described thus: ELISA on coated CD99 antigen.

This passage reports ELISA absorbance results from patent US20230257477A1.

CD99 antigen (Origene, Sku #TP304058), sequence (P14209 23-185 limits assumed): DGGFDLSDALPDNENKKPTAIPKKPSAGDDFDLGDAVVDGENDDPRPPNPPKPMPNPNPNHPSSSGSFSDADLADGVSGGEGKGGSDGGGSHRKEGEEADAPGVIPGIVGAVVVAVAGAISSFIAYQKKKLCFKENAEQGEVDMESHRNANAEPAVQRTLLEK

B1: 1H3H9 (antibody, V domains shown)
VH: EVQLQQSGAELVKPGASVKLSCTASGFDIKDTYIHWVKQRPEQGLEWIGRIDPANGDTRYDPEFQGKASLTADTSSNTAYLQFSNLTSEDTAVYYCARRGGLSWGQGTTLTVSS
VL: DIQMTQSPASLSASVGETVTITCRASGNIHNYLAWYQQKQGKSPQLLVYNAKTLADGVPSRFSGSGSGTQYSLKINSLQPEDFGSYYCQHFWSTPWTFGGGTKLEIK
In the case of B1, the ELISA absorbance stood at 0.658.
